Reference: PMC4268710

Target: OM14 assembled in the outer membrane of isolated mitochondria (S. cerevisiae (endogenous in yeast)) (UniProt P38325)
Test: co-sedimentation; 10 μg purified yeast ribosomes with 25 μg highly purified mitochondria (OM14^+ or OM14Δ, from NAC-deleted cells), 5 min at room temperature in MA buffer, 10,000 g; Rpl3 in the pellet normalised to Tom20

Sequence of UniProt P38325 (P38325 whole entry): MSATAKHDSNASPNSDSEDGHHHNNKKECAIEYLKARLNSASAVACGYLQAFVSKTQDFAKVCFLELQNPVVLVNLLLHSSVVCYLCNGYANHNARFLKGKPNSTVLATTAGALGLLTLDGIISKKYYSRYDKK

- fold ribosomal association, mitochondria with OM14 over OM14Δ mitochondria: > 2 fold
Substance: yeast cytosolic ribosomes (from UniProt P14126 1-387) (complex)
